For this test, the target named is gramicidin S synthetase A (GrsA) (UniProt P0C062). Briefly: MST; 1 nM GrsA labelled with NT-647-NHS (RED-NHS kit), dilution series of TycB1(WT); NRPS buffer (50 mM HEPES, 100 mM NaCl, 10 mM MgCl2, 1 mM EDTA, pH 7.0) with 0.05% (v/v) Tween-20; triplicate; sigmoidal fit.
Sequence of UniProt P0C062 (P0C062 whole entry): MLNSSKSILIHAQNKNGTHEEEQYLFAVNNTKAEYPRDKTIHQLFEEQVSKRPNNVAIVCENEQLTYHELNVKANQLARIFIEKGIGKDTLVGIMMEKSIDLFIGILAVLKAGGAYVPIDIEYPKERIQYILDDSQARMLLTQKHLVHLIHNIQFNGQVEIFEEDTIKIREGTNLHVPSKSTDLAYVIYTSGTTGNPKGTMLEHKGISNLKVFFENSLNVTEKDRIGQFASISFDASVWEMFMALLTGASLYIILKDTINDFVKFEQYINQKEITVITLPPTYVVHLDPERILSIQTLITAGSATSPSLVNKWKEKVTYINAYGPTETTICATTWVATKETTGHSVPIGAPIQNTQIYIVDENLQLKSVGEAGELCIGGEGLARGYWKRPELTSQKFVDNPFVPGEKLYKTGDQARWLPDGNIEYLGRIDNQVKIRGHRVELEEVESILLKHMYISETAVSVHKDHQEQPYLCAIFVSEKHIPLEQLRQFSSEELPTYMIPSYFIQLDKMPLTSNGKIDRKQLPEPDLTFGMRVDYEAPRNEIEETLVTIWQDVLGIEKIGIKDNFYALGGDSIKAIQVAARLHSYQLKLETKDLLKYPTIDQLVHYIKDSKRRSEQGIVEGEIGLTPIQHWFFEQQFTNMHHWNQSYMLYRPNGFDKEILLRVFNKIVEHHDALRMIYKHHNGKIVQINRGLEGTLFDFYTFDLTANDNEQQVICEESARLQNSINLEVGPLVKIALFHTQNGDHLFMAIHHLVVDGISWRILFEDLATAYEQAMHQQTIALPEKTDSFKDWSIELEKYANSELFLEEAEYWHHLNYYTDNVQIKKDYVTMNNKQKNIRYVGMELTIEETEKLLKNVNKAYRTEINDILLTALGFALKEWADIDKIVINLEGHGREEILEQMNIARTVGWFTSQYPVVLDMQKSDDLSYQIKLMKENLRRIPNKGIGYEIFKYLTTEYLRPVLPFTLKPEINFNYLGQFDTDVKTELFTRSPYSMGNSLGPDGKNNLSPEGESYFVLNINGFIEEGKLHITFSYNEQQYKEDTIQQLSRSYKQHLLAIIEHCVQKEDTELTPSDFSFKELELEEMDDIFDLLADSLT

The substance “TycB1 (wildtype) (from UniProt O30408 1-3587) (domain or fragment)” returned a dissociation constant (Kd) of 5 µM.

(Values after article PMC8163358.)
